This passage reports binding result and IC50 results from patent US20100260769A1 (MORPHOTEK, published 2010).

The target in test [1] is T1, mouse TEM1 extracellular domain (ECD)-Fc fusion protein (mouse, UniProt Q91V98 18-695).
T1 construct: also called mouse TEM1-Fc
T1 sequence: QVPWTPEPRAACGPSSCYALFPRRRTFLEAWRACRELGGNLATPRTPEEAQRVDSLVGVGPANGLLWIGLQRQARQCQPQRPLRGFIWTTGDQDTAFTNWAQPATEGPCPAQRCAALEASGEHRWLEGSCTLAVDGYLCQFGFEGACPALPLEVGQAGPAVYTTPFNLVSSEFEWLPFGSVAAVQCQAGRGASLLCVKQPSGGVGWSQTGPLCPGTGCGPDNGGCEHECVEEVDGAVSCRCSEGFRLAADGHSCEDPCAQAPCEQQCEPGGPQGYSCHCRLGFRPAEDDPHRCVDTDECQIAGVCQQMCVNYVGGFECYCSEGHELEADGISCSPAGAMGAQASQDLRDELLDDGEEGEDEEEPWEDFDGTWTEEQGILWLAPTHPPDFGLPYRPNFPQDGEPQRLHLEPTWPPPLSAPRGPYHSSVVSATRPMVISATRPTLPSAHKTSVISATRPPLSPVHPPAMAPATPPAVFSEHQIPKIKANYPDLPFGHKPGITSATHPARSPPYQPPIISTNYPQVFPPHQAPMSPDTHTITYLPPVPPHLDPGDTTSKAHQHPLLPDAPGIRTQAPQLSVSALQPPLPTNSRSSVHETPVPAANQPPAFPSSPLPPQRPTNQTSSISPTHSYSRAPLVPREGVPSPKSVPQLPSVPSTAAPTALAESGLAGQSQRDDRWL
As to the kind of experiment: hybridoma screening ELISA on TEM1-Fc protein, Fc-reactive clones removed by counterscreen. As for the experimental part:
To generate rabbit anti-mouse endosialin (TEM1) antibody clone 8, we immunized two New Zealand white rabbits with four injections of mouse TEM1 extracellular domain (ECD)-Fc fusion protein. Antiserum titer was monitored using standard ELISA (TEM1) and counterscreen ELISA for Fc reactivity. A final IV boost was performed within 4-8 weeks of the last regular injection boost. Splenectomies were performed after the final IV boost. Lymphocytes were isolated from each rabbit spleen. Fusions with 240E-W3 cells (Epitomics) were performed in forty 96-well plates. Standard ELISA screening for 40 plates was performed using TEM1-Fc protein. All positive hybridomas were expanded to 24-well plates and confirmatory standard and differential ELISA were performed. Fc reactive clones were counterscreened and removed, leaving the TEM1-reactive clones. Positive hybridomas were expanded for Ig gene sequencing and generation of purified Ab. One positive hybridoma was assigned the designation clone 8.
On the technique in general: An ELISA detects its analyte on a solid surface through an enzyme-linked reagent.

Test [2] concerns the target soluble human endosialin extracellular domain-mouse Fc fusion protein (human; mouse). The experiment in a line: competition ELISA: hTEM1-Fc (15 µg/mL) preincubated with serial dilutions of antibody, binding to fibronectin-coated plate detected with anti-mouse HRP.
Test [3] deals with T2, full length human TEM1 (endosialin) with a C-terminal V5-His tag, expressed in A431-TEM1 cells / tumor … (human, UniProt Q9HCU0 18-757).
T2 construct: Target in tissue sections of A431-TEM1 tumor xenografts; also called hTEM1; endosialin/TEM1
T2 sequence: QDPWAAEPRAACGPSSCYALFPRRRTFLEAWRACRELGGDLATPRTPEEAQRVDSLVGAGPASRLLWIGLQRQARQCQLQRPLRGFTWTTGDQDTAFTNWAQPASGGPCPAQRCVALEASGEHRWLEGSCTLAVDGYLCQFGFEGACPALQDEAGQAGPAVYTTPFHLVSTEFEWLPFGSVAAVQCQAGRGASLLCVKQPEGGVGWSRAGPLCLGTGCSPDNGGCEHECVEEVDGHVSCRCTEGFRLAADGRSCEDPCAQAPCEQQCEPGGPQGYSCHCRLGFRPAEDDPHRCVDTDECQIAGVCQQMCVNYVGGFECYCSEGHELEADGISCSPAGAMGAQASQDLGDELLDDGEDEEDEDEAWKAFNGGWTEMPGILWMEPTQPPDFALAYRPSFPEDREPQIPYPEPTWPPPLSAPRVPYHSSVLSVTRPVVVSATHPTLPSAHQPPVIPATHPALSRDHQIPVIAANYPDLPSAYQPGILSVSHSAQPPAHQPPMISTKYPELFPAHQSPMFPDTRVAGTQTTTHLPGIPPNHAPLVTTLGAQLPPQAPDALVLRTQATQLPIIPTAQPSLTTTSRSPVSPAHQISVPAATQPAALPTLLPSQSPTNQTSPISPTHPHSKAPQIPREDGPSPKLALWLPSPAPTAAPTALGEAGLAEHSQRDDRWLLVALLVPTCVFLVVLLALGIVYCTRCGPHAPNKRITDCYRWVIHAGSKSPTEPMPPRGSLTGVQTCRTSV
The experiment in a line: IHC on FFPE A431-TEM1 tumor xenograft sections, biotinylated antibody at 20 µg/ml.

Where a chain is given by its changes, count along the chain named.

B1: rabbit anti-mouse endosialin monoclonal antibody clone 8 (antibody, V domains shown)
VH: AQSVEESGGGLVKPEGSLTLSCKASGFSFSNNSYICWVRQAPGKGLEWIACIEFGRGNSHYASWAKGRFTITRSTSLNTVTLQLNSLTAADTATYFCARGSRGVGYGYGLWGPGTLVTISS
VL: ELDMTQTPSPVSAAVGGTVTINCQASQSVYSNSRLSWYQQKPGQPPKQLIYSASTLASGVPSRFKGSGSGTHFTLTLSGVQCDDAATYYCQGEFACSSADCSAFGGGTELEILK
notes: Rabbit IgG from a hybridoma, kappa light chain; rabbit constant regions are not; also called hybridoma clone 8 (ATCC PTA-9651)
Regarding B1, in test [1], the binding result is recorded as “binds”.

B2: rabbit anti-human endosialin monoclonal antibody 1-3-1 (antibody, V domains shown)
VH: AQSVEESGGDLVRPGASLTLTCSASGFTINRNYWICWVRQAPGRGPEWIACIYGGSSGTTYYTNWAKGRFTISKAASTTVTLQMTSLTVADTATYFCARVDNGGDWYFRLWGPGTLVTISS
VL: ELDLTQTPASVEVAVGGTVTIKCQASQSISSYLAWYQQKPGQPPKLLIYRASTLASGVSSRFKGSGSGTEFTLTISGVQCDDAATYYCQQGVRVVDIDNSFGGGTELVVK
Turning to B2, in test [2], the IC50 came to 21.4 µg/mL.

B3: rabbit anti-human endosialin monoclonal antibody 1-55-2 (antibody, V domains shown)
VH: QQQLMESGGDLVKPEGSLTLTCTASGFSFSSSYWGCWVRQAPGKGPEWIACIYGGSSGTTYYPNWAKGRFSISKTSSTTVTLQMASLTAADTATYFCARVTNGGDWDFKLWGPGTLVTVSS
VL: ELVMTQTPASVEVAVGGTVTIKCQASQSINTYLAWYQQKPGQPPKLLIYRASTLASGVPSRFKGSGSGTEFTLTISDLECADAATYYCQQSVRVIDVDNTFGGGTEVVVK
notes: Rabbit IgG from a hybridoma, kappa light chain; rabbit constant regions are not; also called hybridoma 1-55-2 (ATCC PTA-9652)
In the case of B3, the binding result in test [3] is “binds”. The molecule further came in with an IC50 in test [2] of 69.5 µg/mL.

B4: rabbit anti-human endosialin monoclonal antibody 1-25-2 (antibody, V domains shown)
VH: B3 VH with Q1A, Q3S, M5E, V119I
VL: B3 VL with M4L, S28T, T31N, A34T, S91T, I95V, T100S
As to B4, in test [2], the IC50 worked out at 41.5 µg/mL.

The term IC50 denotes the concentration that inhibits the measured activity by half.
